How the values were obtained:
Assay in all cases: non-reducing gel electrophoresis with western blot (trimerization assay); BmN cells expressing GP64 or CARC mutants harvested, lysed in PBS (pH 7.4), separated on 10% nonreducing polyacrylamide gel, blotted with anti-GP64 (AcV5)
[1] = target: BmNPV GP64 (wild type, signal peptide retained) (Bombyx mori nucleopolyhedrovirus (BmNPV)) (UniProt P41722)
[2] = target: BmNPV GP64 F235A (CARC5 mutant) (Bombyx mori nucleopolyhedrovirus (BmNPV)) (UniProt P41722)
[3] = target: BmNPV GP64 W154A (CARC2 mutant) (Bombyx mori nucleopolyhedrovirus (BmNPV)) (UniProt P41722)
[4] = target: BmNPV GP64 W299A (CARC6 mutant) (Bombyx mori nucleopolyhedrovirus (BmNPV)) (UniProt P41722)
[5] = target: BmNPV GP64 Y49A (CARC1 mutant) (Bombyx mori nucleopolyhedrovirus (BmNPV)) (UniProt P41722)
[6] = target: BmNPV GP64 Y188A (CARC4 mutant) (Bombyx mori nucleopolyhedrovirus (BmNPV)) (UniProt P41722)
[7] = target: BmNPV GP64 W178A (CARC3 mutant) (Bombyx mori nucleopolyhedrovirus (BmNPV)) (UniProt P41722)

BmNPV GP64 (wild type, signal peptide retained) (from UniProt P41722 1-37) (natural protein)
stoichiometry N [1]: 3

BmNPV GP64 F235A (CARC5 mutant) (from UniProt P41722 1-37) (natural protein)
stoichiometry N [2]: 3

BmNPV GP64 W154A (CARC2 mutant) (from UniProt P41722 1-37) (natural protein)
stoichiometry N [3]: 3

BmNPV GP64 W299A (CARC6 mutant) (from UniProt P41722 1-37) (natural protein)
stoichiometry N [4]: 3

BmNPV GP64 Y49A (CARC1 mutant) (from UniProt P41722 1-37) (natural protein)
stoichiometry N [5]: 3

BmNPV GP64 Y188A (CARC4 mutant) (from UniProt P41722 1-37) (natural protein)
stoichiometry N [6]: 3

BmNPV GP64 W178A (CARC3 mutant) (from UniProt P41722 1-37) (natural protein)
stoichiometry N [7]: 3

— article PMC11784077
